Legend:
[1] = molecular target: aagab_human AAGAB (UniProt Q6PD74)
[2] = molecular target: T1, dest_human DSTN (UniProt P60981)
T1 sequence: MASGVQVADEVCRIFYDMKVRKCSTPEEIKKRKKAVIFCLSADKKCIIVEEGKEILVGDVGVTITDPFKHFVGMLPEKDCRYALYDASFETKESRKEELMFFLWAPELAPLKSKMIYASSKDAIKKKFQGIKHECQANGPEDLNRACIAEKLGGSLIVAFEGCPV

[3] = molecular target: ntaq1_human NTAQ1 (UniProt Q96HA8)
[4] = molecular target: ctsr1_human CATSPER1 (UniProt Q8NEC5)
[5] = molecular target: creb3_human CREB3 (UniProt O43889)
[6] = molecular target: itf2_human TCF4 (UniProt P15884)
itf2_human TCF4, sequence (P15884 whole entry): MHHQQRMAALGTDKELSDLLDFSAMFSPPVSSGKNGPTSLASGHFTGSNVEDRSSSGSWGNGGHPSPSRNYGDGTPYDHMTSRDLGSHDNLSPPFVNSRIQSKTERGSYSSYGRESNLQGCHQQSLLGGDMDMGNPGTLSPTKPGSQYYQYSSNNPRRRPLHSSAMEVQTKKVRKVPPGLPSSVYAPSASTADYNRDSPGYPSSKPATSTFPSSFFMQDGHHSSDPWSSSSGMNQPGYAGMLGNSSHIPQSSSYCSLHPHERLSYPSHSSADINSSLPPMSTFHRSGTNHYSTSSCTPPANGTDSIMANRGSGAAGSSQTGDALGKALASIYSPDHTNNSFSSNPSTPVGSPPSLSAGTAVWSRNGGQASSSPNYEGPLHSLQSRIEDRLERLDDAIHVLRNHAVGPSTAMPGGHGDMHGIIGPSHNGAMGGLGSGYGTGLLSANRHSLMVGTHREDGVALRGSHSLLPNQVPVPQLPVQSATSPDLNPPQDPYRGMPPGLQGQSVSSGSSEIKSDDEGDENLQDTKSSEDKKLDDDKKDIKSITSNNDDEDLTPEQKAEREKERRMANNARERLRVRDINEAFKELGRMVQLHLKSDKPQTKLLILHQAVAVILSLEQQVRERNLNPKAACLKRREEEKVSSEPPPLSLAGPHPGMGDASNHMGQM

[7] = molecular target: inca1_human INCA1 (UniProt Q0VD86)
inca1_human INCA1, sequence (Q0VD86 whole entry): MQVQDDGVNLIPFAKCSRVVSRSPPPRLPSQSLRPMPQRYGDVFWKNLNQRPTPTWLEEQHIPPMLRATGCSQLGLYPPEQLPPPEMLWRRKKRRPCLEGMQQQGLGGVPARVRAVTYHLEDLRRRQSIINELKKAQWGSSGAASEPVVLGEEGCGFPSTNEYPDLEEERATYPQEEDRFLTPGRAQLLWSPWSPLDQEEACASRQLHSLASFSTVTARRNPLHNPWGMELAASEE

[8] = molecular target: cep76_human CEP76 (UniProt Q8TAP6)
[9] = molecular target: kr108_human KRTAP10-8 (UniProt P60410)
kr108_human KRTAP10-8, sequence (P60410 whole entry): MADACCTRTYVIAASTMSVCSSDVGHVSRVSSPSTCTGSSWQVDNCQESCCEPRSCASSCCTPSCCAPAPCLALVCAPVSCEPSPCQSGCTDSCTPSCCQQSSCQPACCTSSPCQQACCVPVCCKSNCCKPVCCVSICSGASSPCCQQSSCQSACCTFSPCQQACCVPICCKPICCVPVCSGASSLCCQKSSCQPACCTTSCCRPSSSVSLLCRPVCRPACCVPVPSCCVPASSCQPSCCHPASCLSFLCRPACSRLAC

[10] = molecular target: T2, dpyl5_human DPYSL5 (UniProt Q9BPU6)
T2 sequence: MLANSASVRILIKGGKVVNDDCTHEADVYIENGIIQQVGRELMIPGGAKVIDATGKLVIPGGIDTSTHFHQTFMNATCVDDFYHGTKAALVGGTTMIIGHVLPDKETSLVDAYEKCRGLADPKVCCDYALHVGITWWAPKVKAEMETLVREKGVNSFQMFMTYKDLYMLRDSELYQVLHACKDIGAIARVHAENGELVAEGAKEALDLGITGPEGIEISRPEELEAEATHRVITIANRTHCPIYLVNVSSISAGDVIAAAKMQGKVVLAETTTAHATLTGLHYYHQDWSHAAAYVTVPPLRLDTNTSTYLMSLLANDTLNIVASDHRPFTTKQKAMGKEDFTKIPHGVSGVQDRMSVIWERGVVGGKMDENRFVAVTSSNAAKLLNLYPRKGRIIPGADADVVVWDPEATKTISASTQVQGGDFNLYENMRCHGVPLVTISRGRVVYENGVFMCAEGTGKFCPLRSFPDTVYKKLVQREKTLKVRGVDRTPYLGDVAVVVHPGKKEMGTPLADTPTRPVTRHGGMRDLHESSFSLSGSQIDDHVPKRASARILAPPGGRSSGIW

[11] = molecular target: gors2_human GORASP2 (UniProt Q9H8Y8)
[12] = molecular target: dpyl3_human DPYSL3 (UniProt Q14195)
[13] = molecular target: dpyl2_human DPYSL2 (UniProt Q16555)
[14] = molecular target: hnrll_human HNRNPLL (UniProt Q8WVV9)
[15] = molecular target: ZNF385C (UniProt Q66K41)
ZNF385C, sequence (Q66K41 whole entry): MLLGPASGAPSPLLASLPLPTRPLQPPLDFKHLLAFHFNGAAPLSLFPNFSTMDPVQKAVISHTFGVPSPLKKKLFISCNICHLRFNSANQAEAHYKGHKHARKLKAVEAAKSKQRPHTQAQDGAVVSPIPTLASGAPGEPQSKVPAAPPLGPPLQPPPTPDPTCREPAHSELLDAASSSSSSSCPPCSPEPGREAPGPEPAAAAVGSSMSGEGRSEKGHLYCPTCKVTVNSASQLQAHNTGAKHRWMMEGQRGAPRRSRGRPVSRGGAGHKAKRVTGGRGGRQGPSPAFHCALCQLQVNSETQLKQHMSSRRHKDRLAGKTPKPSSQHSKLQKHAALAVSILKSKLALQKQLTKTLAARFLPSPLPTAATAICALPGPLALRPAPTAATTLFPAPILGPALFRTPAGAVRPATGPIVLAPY

[16] = molecular target: tyk2_human TYK2 (UniProt P29597)
[17] = molecular target: ytdc1_human YTHDC1 (UniProt Q96MU7)
[18] = molecular target: rbm42_human RBM42 (UniProt Q9BTD8)
[19] = molecular target: U2AF1 (UniProt Q01081)
U2AF1, sequence (Q01081 whole entry): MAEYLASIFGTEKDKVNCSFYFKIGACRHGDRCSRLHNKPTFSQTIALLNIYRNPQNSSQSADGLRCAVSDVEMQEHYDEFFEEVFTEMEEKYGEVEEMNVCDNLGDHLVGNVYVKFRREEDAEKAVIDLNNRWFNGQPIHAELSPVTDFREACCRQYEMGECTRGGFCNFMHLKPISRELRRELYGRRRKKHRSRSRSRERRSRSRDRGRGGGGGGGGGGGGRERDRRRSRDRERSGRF

[20] = molecular target: abi2_human ABI2 (UniProt Q9NYB9)
[21] = molecular target: rbm7_human RBM7 (UniProt Q9Y580)
[22] = molecular target: grap2_human GRAP2 (UniProt O75791)
[23] = molecular target: prr3_human PRR3 (UniProt P79522)
[24] = molecular target: qki_human QKI (UniProt Q96PU8)
[25] = molecular target: cirbp_human CIRBP (UniProt Q14011)
[26] = molecular target: pex39_human PEX39 (UniProt Q5I0X4)
[27] = molecular target: aakb2_human PRKAB2 (UniProt O43741)
[28] = molecular target: zbt24_human ZBTB24 (UniProt O43167)
[29] = molecular target: leg9b_human LGALS9B (UniProt Q3B8N2)
[30] = molecular target: pdli7_human PDLIM7 (UniProt Q9NR12)
[31] = molecular target: erep1_human ENTREP1 (UniProt Q15884)
erep1_human ENTREP1, sequence (Q15884 whole entry): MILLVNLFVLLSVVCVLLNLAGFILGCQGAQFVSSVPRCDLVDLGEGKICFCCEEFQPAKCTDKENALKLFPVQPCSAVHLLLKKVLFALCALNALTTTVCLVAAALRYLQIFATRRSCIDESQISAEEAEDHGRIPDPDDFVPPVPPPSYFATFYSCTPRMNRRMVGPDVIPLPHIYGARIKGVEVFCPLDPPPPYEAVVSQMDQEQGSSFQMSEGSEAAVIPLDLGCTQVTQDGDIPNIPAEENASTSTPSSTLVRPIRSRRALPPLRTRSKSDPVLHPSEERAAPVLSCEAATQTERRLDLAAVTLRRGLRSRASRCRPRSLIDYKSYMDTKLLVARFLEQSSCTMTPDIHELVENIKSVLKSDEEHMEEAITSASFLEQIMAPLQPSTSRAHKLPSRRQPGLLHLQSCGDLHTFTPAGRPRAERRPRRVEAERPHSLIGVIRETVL

[32] = molecular target: hnrl1_human HNRNPUL1 (UniProt Q9BUJ2)
[33] = molecular target: fxl18_human FBXL18 (UniProt Q96ME1)
[34] = molecular target: ikzf3_human IKZF3 (UniProt Q9UKT9)
[35] = molecular target: neca2_human NECAB2 (UniProt Q7Z6G3)
[36] = molecular target: inca1_human INCA1 (UniProt Q0VD86); remark: listed apart in the source
[37] = molecular target: taso2_human TASOR2 (UniProt Q5VWN6)
[38] = molecular target: itf2_human TCF4 (UniProt P15884); remark: listed apart in the source
[39] = molecular target: tri23_human TRIM23 (UniProt P36406)
[40] = molecular target: kr108_human KRTAP10-8 (UniProt P60410); remark: listed apart in the source
[41] = molecular target: stat3_human STAT3 (UniProt P40763)
[42] = molecular target: efs_human EFS (UniProt O43281)
[43] = molecular target: zn446_human ZNF446 (UniProt Q9NWS9)
[44] = molecular target: kr101_human KRTAP10-1 (UniProt P60331)
[45] = molecular target: kr103_human KRTAP10-3 (UniProt P60369)
[46] = molecular target: kr105_human KRTAP10-5 (UniProt P60370)
[47] = molecular target: mdfi_human MDFI (UniProt Q99750)

Zinc finger protein 559 (Homo sapiens), Q9BR84 K62I, sequence (Q9BR84 whole entry K62I): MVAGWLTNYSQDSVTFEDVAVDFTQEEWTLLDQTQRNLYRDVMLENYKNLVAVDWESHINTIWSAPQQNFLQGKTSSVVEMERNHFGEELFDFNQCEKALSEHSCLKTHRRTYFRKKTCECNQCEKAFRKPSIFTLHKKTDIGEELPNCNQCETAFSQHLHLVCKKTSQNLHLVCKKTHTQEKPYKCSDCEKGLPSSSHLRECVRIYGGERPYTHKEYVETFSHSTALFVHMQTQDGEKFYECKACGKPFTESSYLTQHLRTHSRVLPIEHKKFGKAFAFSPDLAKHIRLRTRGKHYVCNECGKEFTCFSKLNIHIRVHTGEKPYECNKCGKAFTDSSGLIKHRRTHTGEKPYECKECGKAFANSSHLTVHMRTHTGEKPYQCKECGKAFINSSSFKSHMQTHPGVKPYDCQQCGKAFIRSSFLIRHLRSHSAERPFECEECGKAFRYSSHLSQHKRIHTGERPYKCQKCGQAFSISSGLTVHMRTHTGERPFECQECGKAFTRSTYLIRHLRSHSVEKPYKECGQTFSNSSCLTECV
Serine/threonine-protein kinase Nek6 (Homo sapiens), Q9HC98 R195C, sequence (Q9HC98 whole entry R195C): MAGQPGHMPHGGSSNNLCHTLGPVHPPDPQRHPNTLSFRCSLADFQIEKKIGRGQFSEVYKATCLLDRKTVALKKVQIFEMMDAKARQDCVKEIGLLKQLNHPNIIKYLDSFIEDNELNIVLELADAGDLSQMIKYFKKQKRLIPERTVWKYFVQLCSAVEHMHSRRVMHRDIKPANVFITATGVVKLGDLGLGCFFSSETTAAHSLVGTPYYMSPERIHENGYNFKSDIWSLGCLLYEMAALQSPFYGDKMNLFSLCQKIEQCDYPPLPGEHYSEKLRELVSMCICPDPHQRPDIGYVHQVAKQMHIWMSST
Tyrosine-protein kinase Blk (Homo sapiens), P51451 I338T, sequence (P51451 whole entry I338T): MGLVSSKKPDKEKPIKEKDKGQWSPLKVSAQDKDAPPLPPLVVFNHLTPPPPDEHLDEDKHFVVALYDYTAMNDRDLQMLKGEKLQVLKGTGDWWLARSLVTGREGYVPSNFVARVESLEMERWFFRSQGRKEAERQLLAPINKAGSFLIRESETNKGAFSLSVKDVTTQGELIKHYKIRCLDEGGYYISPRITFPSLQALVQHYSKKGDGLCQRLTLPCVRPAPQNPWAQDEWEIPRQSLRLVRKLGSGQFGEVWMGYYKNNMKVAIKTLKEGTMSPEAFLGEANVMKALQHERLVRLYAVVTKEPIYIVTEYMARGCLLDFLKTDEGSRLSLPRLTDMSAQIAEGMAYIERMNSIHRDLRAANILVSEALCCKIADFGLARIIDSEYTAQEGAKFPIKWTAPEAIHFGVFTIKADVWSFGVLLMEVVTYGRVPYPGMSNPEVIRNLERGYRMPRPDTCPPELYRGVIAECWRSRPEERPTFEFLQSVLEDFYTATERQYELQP
Apolipoprotein A-II (Homo sapiens), P02652 Q71R, sequence (P02652 whole entry Q71R): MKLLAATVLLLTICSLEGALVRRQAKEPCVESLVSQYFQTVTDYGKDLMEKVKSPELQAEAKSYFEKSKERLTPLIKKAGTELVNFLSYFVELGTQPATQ
Cyclin-J-like protein (Homo sapiens), Q8IV13 W188R, sequence (Q8IV13 whole entry W188R): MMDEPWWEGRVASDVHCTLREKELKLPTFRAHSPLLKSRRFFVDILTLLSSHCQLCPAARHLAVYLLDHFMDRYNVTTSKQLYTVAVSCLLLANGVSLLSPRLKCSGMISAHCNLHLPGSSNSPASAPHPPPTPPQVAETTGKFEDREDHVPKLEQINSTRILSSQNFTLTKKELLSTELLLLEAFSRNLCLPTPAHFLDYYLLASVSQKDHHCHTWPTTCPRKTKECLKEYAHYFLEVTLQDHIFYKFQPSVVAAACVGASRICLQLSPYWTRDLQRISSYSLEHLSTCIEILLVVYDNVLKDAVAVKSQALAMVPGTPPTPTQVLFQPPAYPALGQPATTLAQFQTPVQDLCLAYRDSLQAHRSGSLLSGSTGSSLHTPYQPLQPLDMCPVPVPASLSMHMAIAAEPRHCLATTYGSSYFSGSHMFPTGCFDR
ctsr1_human CATSPER1, sequence (Q8NEC5 whole entry): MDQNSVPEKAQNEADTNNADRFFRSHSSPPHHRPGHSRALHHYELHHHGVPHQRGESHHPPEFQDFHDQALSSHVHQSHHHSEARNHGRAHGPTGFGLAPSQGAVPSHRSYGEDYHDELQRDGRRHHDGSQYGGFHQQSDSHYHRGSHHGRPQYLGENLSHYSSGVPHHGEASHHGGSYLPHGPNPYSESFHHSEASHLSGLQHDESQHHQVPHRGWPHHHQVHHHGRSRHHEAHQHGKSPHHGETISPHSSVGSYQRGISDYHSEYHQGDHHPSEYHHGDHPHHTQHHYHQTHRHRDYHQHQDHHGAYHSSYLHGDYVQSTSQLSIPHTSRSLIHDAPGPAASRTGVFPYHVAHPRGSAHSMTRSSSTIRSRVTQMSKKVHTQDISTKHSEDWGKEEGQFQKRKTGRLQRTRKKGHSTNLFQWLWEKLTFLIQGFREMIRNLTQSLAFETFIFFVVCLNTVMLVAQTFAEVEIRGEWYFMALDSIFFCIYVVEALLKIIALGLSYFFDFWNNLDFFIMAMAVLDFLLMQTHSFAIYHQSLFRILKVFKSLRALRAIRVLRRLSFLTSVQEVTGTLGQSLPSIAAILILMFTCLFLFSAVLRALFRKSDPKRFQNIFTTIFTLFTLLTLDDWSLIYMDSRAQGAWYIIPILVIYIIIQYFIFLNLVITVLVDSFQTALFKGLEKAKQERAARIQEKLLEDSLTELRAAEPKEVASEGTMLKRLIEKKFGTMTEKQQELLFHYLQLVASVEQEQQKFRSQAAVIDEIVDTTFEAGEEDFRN

For “AP-2 complex subunit sigma (Homo sapiens), P53680 G64D”, the “effect of a mutation on the interaction” value [1] was “with no effect”.
With “Actin, cytoplasmic 1 (Homo sapiens) (from UniProt P60709) R372C” the “effect of a mutation on the interaction” value [2] was “with no effect” and the “effect of a mutation on the interaction” value [3] was “with no effect”.
“Apolipoprotein A-II (Homo sapiens), P02652 Q71R” was tested, and the “effect of a mutation on the interaction” value [4] was “with no effect” and the “effect of a mutation on the interaction” value [5] was “with no effect”.
With “Calcium-binding protein 5 (Homo sapiens), Q9NP86 T59M” the “effect of a mutation on the interaction” value [6] was “with no effect”, the “effect of a mutation on the interaction” value [7] was “with no effect” and the “effect of a mutation on the interaction” value [8] was “with no effect”.
With “Cyclin-J-like protein (Homo sapiens), Q8IV13 W188R” the “effect of a mutation on the interaction” value [9] was “with no effect”.
“Dihydropyrimidinase-related protein 2 (Homo sapiens) (from UniProt Q16555) R496C” was tested, and the “effect of a mutation on the interaction” value [10] was “with no effect”, the “effect of a mutation on the interaction” value [11] was “disrupting interaction strength” and the “effect of a mutation on the interaction” value [12] was “with no effect”.
“Dihydropyrimidinase-related protein 3 (Homo sapiens), Q14195 V25I” was tested, and the “effect of a mutation on the interaction” value [13] was “with no effect”.
With “Heterogeneous nuclear ribonucleoprotein K (Homo sapiens), P61978 R377H” the “effect of a mutation on the interaction” value [14] was “with no effect”, the “effect of a mutation on the interaction” value [15] was “with no effect” and the “effect of a mutation on the interaction” value [16] was “with no effect”. The “effect of a mutation on the interaction” value [17] was “with no effect”, the “effect of a mutation on the interaction” value [18] was “with no effect” and the “effect of a mutation on the interaction” value [19] was “with no effect”. The “effect of a mutation on the interaction” value [20] was “with no effect”, the “effect of a mutation on the interaction” value [21] was “with no effect” and the “effect of a mutation on the interaction” value [22] was “with no effect”. For the same substance, the “effect of a mutation on the interaction” value [23] was “with no effect”, the “effect of a mutation on the interaction” value [24] was “with no effect” and the “effect of a mutation on the interaction” value [25] was “with no effect”. The “effect of a mutation on the interaction” value [26] was “with no effect”.
In the case of “Krueppel-like factor 15 (Homo sapiens), Q9UIH9 G206R”, the “effect of a mutation on the interaction” value [27] is reported as “with no effect” and the “effect of a mutation on the interaction” value [28] is reported as “with no effect”.
“NEDD4-like E3 ubiquitin-protein ligase WWP2 (Homo sapiens), O00308 R178W” was tested, and the “effect of a mutation on the interaction” value [29] was “with no effect”, the “effect of a mutation on the interaction” value [30] was “with no effect” and the “effect of a mutation on the interaction” value [31] was “with no effect”. For the same substance, the “effect of a mutation on the interaction” value [32] was “with no effect” and the “effect of a mutation on the interaction” value [33] was “with no effect”.
For “Serine/threonine-protein kinase Nek6 (Homo sapiens), Q9HC98 R195C”, the “effect of a mutation on the interaction” value [34] was “disrupting interaction strength”, the “effect of a mutation on the interaction” value [35] was “disrupting interaction strength” and the “effect of a mutation on the interaction” value [36] was “with no effect”. The “effect of a mutation on the interaction” value [37] was “disrupting interaction strength”, the “effect of a mutation on the interaction” value [38] was “with no effect” and the “effect of a mutation on the interaction” value [39] was “disrupting interaction strength”.
“Solute carrier family 23 member 1 (Homo sapiens), Q9UHI7 L461M” was tested, and the “effect of a mutation on the interaction” value [40] was “with no effect”.
For “Tyrosine-protein kinase Blk (Homo sapiens), P51451 I338T”, the “effect of a mutation on the interaction” value [41] was “disrupting interaction strength” and the “effect of a mutation on the interaction” value [42] was “with no effect”.
In the case of “Zinc finger and SCAN domain-containing protein 30 (Homo sapiens), Q86W11 G186S”, the “effect of a mutation on the interaction” value [43] is reported as “with no effect”.
In the case of “Zinc finger protein 559 (Homo sapiens), Q9BR84 K62I”, the “effect of a mutation on the interaction” value [44] is reported as “with no effect”, the “effect of a mutation on the interaction” value [45] is reported as “with no effect” and the “effect of a mutation on the interaction” value [46] is reported as “with no effect”. For the same substance, the “effect of a mutation on the interaction” value [47] was “with no effect”.
